Series [1] concerns the target T1, CYP6Z2 (Anopheles gambiae, UniProt A8I285).
T1 construct: recombinant membrane preparation from earlier work; cytochrome b5 added
T1 sequence (A8I285 1-492): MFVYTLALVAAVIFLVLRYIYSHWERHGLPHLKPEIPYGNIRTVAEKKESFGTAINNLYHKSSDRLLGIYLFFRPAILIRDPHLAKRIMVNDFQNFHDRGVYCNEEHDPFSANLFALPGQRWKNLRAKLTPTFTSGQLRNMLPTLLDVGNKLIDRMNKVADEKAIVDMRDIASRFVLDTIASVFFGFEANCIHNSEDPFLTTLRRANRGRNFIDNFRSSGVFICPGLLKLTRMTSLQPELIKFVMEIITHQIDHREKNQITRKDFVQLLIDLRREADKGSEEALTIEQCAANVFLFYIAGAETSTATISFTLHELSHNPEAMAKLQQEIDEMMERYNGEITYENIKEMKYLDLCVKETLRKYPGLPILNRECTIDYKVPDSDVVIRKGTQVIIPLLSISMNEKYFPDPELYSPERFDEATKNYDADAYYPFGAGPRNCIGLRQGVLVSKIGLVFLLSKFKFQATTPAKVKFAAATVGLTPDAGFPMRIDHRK
In words: resorufin fluorescence turnover, recombinant membranes. In kind it is biochemical. Particulars: 5 µM substrate, NADPH regeneration, cyt b5, 0.1 M KPi pH 7.4, 25°C.

Substrate in series [2]: CC1(C)C(C=C(Cl)Cl)C1C(=O)OCc1cccc(Oc2ccccc2)c1
Briefly: HPLC substrate depletion, recombinant E. coli membranes, Michaelis-Menten fit. In kind it is biochemical, Aedes aegypti. Particulars: 0.1 µM P450, 0.8 µM cyt b5, NADPH regeneration, 200 mM Tris-HCl pH 7.4, 30°C, 10 min, apparent. An excerpt:
(§1) HPLC substrate depletion, recombinant E. coli membranes, Michaelis-Menten fit on CYP9J32

Substrate in series [3]: CC1(C)[C@H](C(=O)O[C@H](C#N)c2cccc(Oc3ccccc3)c2)[C@@H]1C=C(Br)Br
The description is as above. As to conditions: 0.1 µM P450, 0.8 µM cyt b5, NADPH regeneration, 200 mM Tris-HCl pH 7.4, 30°C, 10 min, apparent. In kind it is biochemical, Aedes aegypti.
From the text: as §1

Substrate in series [4]: CC1(C)C(C=C(Cl)Cl)C1C(=O)OCc1cccc(Oc2ccccc2)c1
The series is described as above. As to conditions: 0.1 µM P450, 0.8 µM cyt b5, NADPH regeneration, 200 mM Tris-HCl pH 7.4, 30°C, 10 min, apparent. In kind it is biochemical, Aedes aegypti. The text has this:
(§2) HPLC substrate depletion, recombinant E. coli membranes, Michaelis-Menten fit on CYP9J26
This is another data set of the same source.

Substrate in series [5]: CC1(C)[C@H](C(=O)O[C@H](C#N)c2cccc(Oc3ccccc3)c2)[C@@H]1C=C(Br)Br
The series is described as above. In kind it is biochemical, Aedes aegypti. Particulars: 0.1 µM P450, 0.8 µM cyt b5, NADPH regeneration, 200 mM Tris-HCl pH 7.4, 30°C, 10 min, apparent.
From the text: as §2
This is another data set of the same source.

Three molecules from PMC3313934, “Pinpointing P450s Associated with Pyrethroid Metabolism in the Dengue Vector, Aedes aegypti: Developing New Tools to Combat Insecticide Resistance” (PLoS Neglected Tropical Diseases, 2012) can be followed below.

Broadly, the Km is the concentration of substrate that gives half-maximal velocity. As a reminder, the kcat is the number of substrate molecules converted per active site and unit of time at saturation.

Regarding `COc1ccc2nc3ccc(=O)cc-3oc2c1` [RME], the “resorufin fluorescence turnover, recombinant membranes” value in series [1] was “greatest activity towards RME for the resorufin ethers and L-ME for the proluciferins”.

B1: CYP9J32 (Aedes aegypti) (protein)
chain: VIYRQVKKHYDYFHDKPIPSMATVPLLGSTGPLMTKRCTFNDFIQTIYNKYPSAKIFGLFDMTTKMFVLRDPEVIKKITVKDFEYFVDRRPLFGANKEDDGNENILFNKTLVGMVDQRWRDMRAILSPAFTGSKMRAMFELIEQYCTQMVPILKEQSAESGYVDYEMKDFFSRVANDIIATCAFGLQVESLKSRDNEFYTMGKQMMNFNRFIVLLRVMGLRFFPSLMIKMGVDIVDREQNQYFSKIIKEAVRARETHGIVRPDMIHLLMQARKGTLKHQQETTESTAGFATVEESDVGKSVVSKTMSEPEFIAQCLIFFLAGFDTVSTGMLFMAYELALNPDIQQKLYEEIAQTNKELGGKPATYDTLQKMKYMDMVVSESLRMWPVAAFDRKCGRDYVLDDGAGLKFTIDAGTCIWVPVYGIHRDPKYYPNPDKFEPERFSDENRGKIDMTMYMPFGMGPRNCIGSRFALMEIKAIMYALLLNFSIERNEKTQVPLKLVKGFVGLQVENGLHLRFKKRK
notes: full-length, ompA leader with Ala-Gly linker at N-terminus, E. coli DH5alpha membranes; co-expressed An. gambiae CPR, added An. gambiae cytochrome b5
On to B1, for which, in series [2], the Michaelis constant (Km) is 2.3 ± 1.1 µM and the catalytic constant (kcat) worked out at 0.0133 ± 0.00167 s⁻¹. In series [3], the Michaelis-Menten constant (Km) was 5.2 ± 2.1 µM and the catalytic constant (kcat) came out at 0.05 ± 0.00833 s⁻¹.

B2: CYP9J26 (Aedes aegypti) (protein)
chain: MEVELLHVGVLVAIVAFLYRWITRNNDYFHDKPIPSMAVTPFLGASGPLLLRKVTFNDFVQSIYNKYPGVKVFGMFDTITPFFVIRDPELIKQIGIKDFDHFVDHRPTFGLDDETAEHPKALFRKTLFSMTGQRWKEMRATLSPAFTGSKMRQMFSLMSECCDEMMKHYLDKAKGSGRVEVEMKDLLSRISINVIASCAFGIKVDCFKEQEHEFLYHGRKMMGFGRPIVIARMLAMRVFPKFAAKFGIDLLDREQANYFTHVFQETIRARESHGYIRHDMIDLLLQARKGTLKYQEEKDDQEGFATVQESDVGKADVSKSMTEAEMIAQCLIFFLGGFDTVSTCAMFTAYELVRNPEVQHKLYEEIKQTEKELEGKPLSYDALQKMKYMDMVVSETLRMWPLAPATDRLCTQDYTIDDGQGVRFTIDKGTCVWFPAAGLHHDPQYFPNPEKFDPERFNDENKRNINLGAYLPFGIGPRNCIGSRFALMEVKAVMYFILLKFSFVRGAKTQIPMQLRKGFTNLGPENGMHVELKLR
notes: full-length, ompA-Ala-Pro leader at N-terminus, pCW-ori+, E. coli DH5alpha membranes; co-expressed An. gambiae CPR, added An. gambiae cytochrome b5
Consider B2, for which, in series [4], the Km came to 4.2 ± 0.9 µM and the kcat came out at 0.01 ± 0.00167 s⁻¹. Besides, in series [5], the Km was determined as 1.2 ± 0.2 µM and the kcat amounted to 0.00367 ± 0.000167 s⁻¹.
